Values quoted from earlier work, collected in article PMC3386954.

Target: Capillary morphogenesis gene 2 protein (Homo sapiens) (UniProt P58335)

Question: Which Kd does the source give for “Protective antigen (from UniProt P13423)” here?
Answer: Its Kd is greater than 170 pM.
